Where two headings read alike, the source gives them in different places. A value given as a limit tells only on which side of the number the result lay.

In general, Kd refers to a measure of binding affinity in units of concentration. A lower Kd goes with tighter binding.

Data set [1] has as its target T1, RPA heterotrimer (RPA70/RPA32/RPA14) (Homo sapiens, UniProt P27694;P15927;P35244 1-616;1-270;1-121). Nature of the data set: EMSA. Background: In EMSA bound probe runs differently from free probe, usually more slowly.
Data set [2] concerns the target T1, RPA heterotrimer (RPA70/RPA32/RPA14). Nature of the data set: SPR. A general note: In SPR one partner is held on a chip, and binding of the other changes the refractive index at the surface.
Data set [3] shares this target. Nature of the data set: SPR. The source holds these as a separate data set.
For data set [4], the target named is T2, Cdc45 (Homo sapiens, UniProt O75419 1-566).
T2 sequence: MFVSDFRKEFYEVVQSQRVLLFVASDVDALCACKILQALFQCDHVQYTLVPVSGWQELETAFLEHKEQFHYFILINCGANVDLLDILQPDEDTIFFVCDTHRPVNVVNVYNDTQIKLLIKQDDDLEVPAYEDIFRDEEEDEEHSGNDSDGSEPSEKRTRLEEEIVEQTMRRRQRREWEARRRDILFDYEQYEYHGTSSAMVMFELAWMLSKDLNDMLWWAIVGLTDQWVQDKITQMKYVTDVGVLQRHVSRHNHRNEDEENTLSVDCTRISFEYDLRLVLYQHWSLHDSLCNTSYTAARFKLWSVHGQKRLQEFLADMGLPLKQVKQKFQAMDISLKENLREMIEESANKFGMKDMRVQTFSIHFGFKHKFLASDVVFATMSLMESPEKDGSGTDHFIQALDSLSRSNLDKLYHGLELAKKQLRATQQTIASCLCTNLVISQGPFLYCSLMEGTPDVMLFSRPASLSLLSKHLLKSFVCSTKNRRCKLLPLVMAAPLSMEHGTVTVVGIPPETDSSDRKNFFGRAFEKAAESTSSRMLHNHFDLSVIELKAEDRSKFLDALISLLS
As to the kind of experiment: EMSA.

For data set [5], the target named is SSB (Escherichia coli, UniProt P0AGE0 1-178). As to the kind of experiment: EMSA.
The target in data set [6] is T1, RPA heterotrimer (RPA70/RPA32/RPA14). As to the kind of experiment: EMSA. The source holds these as a separate data set.

T1 sequence (P27694 whole entry, chain 1 of 3): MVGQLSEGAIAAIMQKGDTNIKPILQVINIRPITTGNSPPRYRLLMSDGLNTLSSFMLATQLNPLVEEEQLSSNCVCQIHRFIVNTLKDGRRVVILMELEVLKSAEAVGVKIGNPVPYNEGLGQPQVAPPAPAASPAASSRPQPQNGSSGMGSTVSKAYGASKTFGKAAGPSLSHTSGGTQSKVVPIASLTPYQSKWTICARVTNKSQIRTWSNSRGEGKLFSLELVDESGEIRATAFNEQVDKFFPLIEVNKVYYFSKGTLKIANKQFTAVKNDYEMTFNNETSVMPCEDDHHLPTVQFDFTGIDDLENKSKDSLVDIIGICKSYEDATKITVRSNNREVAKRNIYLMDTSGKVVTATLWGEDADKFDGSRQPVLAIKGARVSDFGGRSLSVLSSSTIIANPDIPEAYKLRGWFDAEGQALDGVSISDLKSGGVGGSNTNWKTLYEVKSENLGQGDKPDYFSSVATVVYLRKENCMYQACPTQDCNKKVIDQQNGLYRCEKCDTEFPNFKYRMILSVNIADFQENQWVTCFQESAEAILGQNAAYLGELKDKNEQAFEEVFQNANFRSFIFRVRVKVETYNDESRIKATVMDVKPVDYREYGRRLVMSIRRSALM
T1 sequence (P15927 whole entry, chain 2 of 3): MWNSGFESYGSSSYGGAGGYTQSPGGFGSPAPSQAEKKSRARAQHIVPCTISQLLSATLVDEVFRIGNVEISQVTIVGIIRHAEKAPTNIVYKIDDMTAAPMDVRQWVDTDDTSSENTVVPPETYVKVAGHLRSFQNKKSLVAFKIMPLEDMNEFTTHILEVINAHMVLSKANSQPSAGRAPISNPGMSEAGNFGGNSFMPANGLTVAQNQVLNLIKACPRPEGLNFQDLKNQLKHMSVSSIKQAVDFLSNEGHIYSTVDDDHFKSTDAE
T1 sequence (P35244 whole entry, chain 3 of 3): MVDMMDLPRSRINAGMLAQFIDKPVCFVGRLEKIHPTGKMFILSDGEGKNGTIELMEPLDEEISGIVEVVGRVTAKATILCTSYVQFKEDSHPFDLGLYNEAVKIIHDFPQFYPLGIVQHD
Sequence of SSB (P0AGE0 whole entry): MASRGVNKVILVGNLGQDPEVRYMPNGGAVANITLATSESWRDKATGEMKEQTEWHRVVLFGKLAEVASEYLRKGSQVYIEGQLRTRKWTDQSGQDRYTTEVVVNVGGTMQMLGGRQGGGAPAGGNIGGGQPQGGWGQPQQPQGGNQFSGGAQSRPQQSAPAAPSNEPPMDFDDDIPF

B1: M5 (67-mer; called 65-mer in text) (ssDNA)
DNA: GTACCCGGGGATCCTCTAGAGTCGACCTGCAGGCATGCAAGCTTGGCACTGGCCGTCGTTTTACAAC
B1 had a binding signal in data set [1] of about 4 fold vs RPA alone.

Consider GGCTGGCATG (ssDNA) [M10-biotin (10-mer)], for which the Kd in data set [2] stood at 112 ± 14 nM; in data set [3], 44.1 ± 4.7 nM.

As for GCTTGCATGCCTGCAGGCCAGCCTCAATCTCATC (ssDNA) [M2 (34-mer)], the binding result in data set [4] is “no binding”; in data set [5], “binds”. The molecule also gave a binding signal in data set [6] of over 5 fold vs RPA alone.

As for GCTTGCATGCCTGCAGGCCAGCCTCAATCTCATC (ssDNA) [M2-biotin (34-mer)], in data set [3], the dissociation constant Kd stood at 1.53 ± 1.3 nM.

For the origin of these results see PMC5389570.
